The text below walks through data of US12534531 (MacroGenics, dated 2026).

Where a chain is given by its changes, count along the chain named.

The target in test [1] is T1, human PD-1 expressed on the surface of cells (NSO cells expressing human PD-1; MNFAT-luc2/PD-1 Jurkat cells) (human, UniProt Q15116 21-288).
T1 construct: also called cell surface PD-1; PDCD1 transfected NSO cells expressing PD-1
Briefly: FACS blocking on NSO cells expressing human PD-1, 1:4 dilutions, MFI; blocked ligand: biotinylated sPD-L1, streptavidin-PE.

In test [2] the target is T1, human PD-1 expressed on the surface of …. Briefly: FACS blocking on NSO cells expressing human PD-1, 1:4 dilutions, MFI; blocked ligand: biotinylated sPD-L2, streptavidin-PE.
Test [3] deals with T2, soluble cynomolgus monkey PD-1 (scyno PD-1 hFc) cleaved to remove Fc portion (cynomolgus monkey, UniProt B0LAJ3 25-170). Briefly: Biacore, mAb captured on Protein A, analyte scyno PD-1 hFc cleaved of Fc.
T2 sequence (B0LAJ3 entry or part of it limits assumed): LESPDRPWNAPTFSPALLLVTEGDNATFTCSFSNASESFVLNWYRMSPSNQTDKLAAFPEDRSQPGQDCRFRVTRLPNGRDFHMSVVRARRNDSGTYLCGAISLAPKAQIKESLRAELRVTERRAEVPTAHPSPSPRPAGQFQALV
The target of test [4] is T3, soluble human PD-1 (the extracellular domain of human PD-1 fused to a His tag) (human, UniProt Q15116 25-170).
T3 construct: also called shPD-1 His; shPD-1-His; not shown: His tag
T3 sequence (Q15116 25-170): as the sequence (B0LAJ3 entry or part of it limits assumed) above, with E2D, A10P, L19V, A35T, R75Q, A144T counted along it
Briefly: Biacore, mAb captured on Protein A, analyte shPD-1 His.

Test [5] has as its target T3, soluble human PD-1 (the extracellular …). Briefly: ELISA: shPD-1 His coated at 0.5 ug/ml, goat anti-mouse IgG (H+L) detection, RLU.
Test [6] has as its target T4, soluble human PD-1 (the extracellular domain of human PD-1 fused to a human Fc Region) (human, UniProt Q15116 25-170).
T4 construct: whole entry named; also called shPD-1 hFc; shPD-1-human Fc; not shown: human Fc Region
Briefly: ELISA: shPD-1 hFc coated at 0.5 ug/ml, goat anti-mouse IgG (H+L) detection, RLU.

Test [7] deals with T5, soluble cynomolgus monkey PD-1 (the extracellular domain of cynomolgus monkey PD-1 fused to a human Fc Region) (cynomolgus monkey, UniProt B0LAJ3 25-170).
T5 construct: also called scyno-PD1 Fc; scynoPD-1-hFc; not shown: Human Fc Region and any linker or cleavage site between the extracellular domain and the Fc
T5 sequence (B0LAJ3 entry or part of it limits assumed): as the sequence (B0LAJ3 entry or part of it limits assumed) above
Kind of test: ELISA: scyno-PD-1-TEV-Fc coated at 1 ug/ml, goat anti-mouse IgG (H+L) detection, RLU.

The target in test [8] is T2, soluble cynomolgus monkey PD-1 (scyno …). Kind of test: Biacore, mAb captured on F(ab)2 goat anti-human Fc, analyte scyno PD-1 hFc cleaved of Fc.
For test [9], the target named is T1, human PD-1 expressed on the surface of …. Kind of test: FACS saturation binding on NSO cells expressing human PD-1, goat anti-human-APC, MFI, 1:4 dilutions.

T4 sequence (Q15116 25-170): as the sequence (B0LAJ3 entry or part of it limits assumed) above, with E2D, A10P, L19V, A35T, R75Q, A144T counted along it
T1 sequence (Q15116 21-288): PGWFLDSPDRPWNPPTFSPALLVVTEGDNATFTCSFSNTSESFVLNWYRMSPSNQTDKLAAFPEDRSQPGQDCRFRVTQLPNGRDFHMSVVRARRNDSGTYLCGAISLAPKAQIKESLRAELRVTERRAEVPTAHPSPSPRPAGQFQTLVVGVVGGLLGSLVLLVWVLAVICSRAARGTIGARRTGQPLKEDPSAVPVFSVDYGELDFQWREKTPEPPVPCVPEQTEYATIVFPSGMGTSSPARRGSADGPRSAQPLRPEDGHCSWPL

B1: hPD-1 mAb 15 IgG1 (AA) (antibody, V domains shown)
VH: EVQLVESGGGLVRPGGSLRLSCAASGFTFSSYLISWVRQAPGKGLEWVAAISGGGADTYYADSVKGRFTISRDNAKNSLYLQMNSLRAEDTATYYCARRGTYAMDYWGQGTLVTVSS
VL: DIQMTQSPSSLSASVGDRVTITCLASQTIGTWLAWYQQKPGKAPKLLIYAATSLADGVPSRFSGSGSGTDFTFTISSLQPEDFATYYCQQLYSIPWTFGQGTKLEIKR
For the molecule B1, the “IC50 (read off the curve)” value in test [1] is around 0.04 ug/test; in test [2] it was around 0.09 ug/test.

B2: hPD-1 mAb 15, constant region not named where tested (antibody, V domains shown)
VH: B1 VH
VL: DIQMTQSPSSLSASVGDRVTITCLASQTIGTWLAWYQQKPGKAPKLLIYAATSLADGVPSRFSGSGSGTDFTFTISSLQPEDFATYYCQQLYSIPWTFGQGTKLEIK
notes: also called humanized PD-1 mAb 15
As for B2, the figures for the dissociation constant Kd in [3] and in test [4] were 78.3 nM and 13.3 nM, respectively.

B3: hPD-1 mAb 7 (1.2), constant region not named where tested (antibody, V domains shown)
VH: QVQLVQSGAEVKKPGASVKVSCKASGYSFTSYWMNWVRQAPGQGLEWIGVIHPSDSETWLDQKFKDRVTITVDKSTSTAYMELSSLRSEDTAVYYCAREHYGTSPFAYWGQGTLVTVSS
VL: EIVLTQSPATLSLSPGERATLSCRASESVDNYGMSFMNWFQQKPGQPPKLLIHAASNQGSGVPSRFSGSGSGTDFTLTISSLEPEDFAVYFCQQSKEVPYTFGGGTKVEIK
For the molecule B3, the figures for the dissociation constant Kd in test [3] and in [4] were 1.7 nM and 0.39 nM, respectively.

B4: PD-1 mAb 13 (antibody, V domains shown)
VH: EVMLVESGGGLVKPGGSLKLSCAASGFTFSSHTMSWVRQTPEKRLEWVATISGGGSNIYYPDSVKGRFTISRDNAKNTLYLQMSSLRSEDTALYYCARQAYYGNYWYFDVWGTGTTVTVSS
VL: DIQMTQSPATQSASLGESVTITCLASQTIGTWLAWYQQKPGKSPQLLIYAATSLADGVPSRFSGSGSGTKFSFKISSLQAEDFVSYYCQQLDSIPWTFGGGTKLEIK
notes: Murine monoclonal antibody
B4: the binding result in test [5], in test [6] and in test [7] was “binds” in each case.

B5: PD-1 mAb 15 (antibody, V domains shown)
VH: EVMLVESGGGLVKPGGSLKLSCAASGFIFSSYLISWVRQTPEKRLEWVAAISGGGADTYYADSVKGRFTISRDNAKNTLYLQMSSLRSEDTALYYCTRRGTYAMDYWGQGTSVTVSS
VL: B4 VL with T10S, S85N, D92Y
notes: Murine monoclonal antibody
Take B5: the Kd in test [3] worked out at 40.7 nM; in [4] it was 2.9 nM. Also, the binding result in test [6] and in [7] was “binds” each time.

B6: PD-1 mAb A IgG1 (AA) (antibody, V domains shown)
VH: QVQLVESGGGVVQPGRSLRLDCKASGITFSNSGMHWVRQAPGKGLEWVAVIWYDGSKRYYADSVKGRFTISRDNSKNTLFLQMNSLRAEDTAVYYCATNDDYWGQGTLVTVSS
VL: EIVLTQSPATLSLSPGERATLSCRASQSVSSYLAWYQQKPGQAPRLLIYDASNRATGIPARFSGSGSGTDFTLTISSLEPEDFAVYYCQQSSNWPRTFGQGTKVEIK
Regarding B6, the Kd in test [8] was determined as 5.6 nM.

B7: PD-1 mAb A (nivolumab), constant region not named where tested (antibody, V domains shown)
VH: B6 VH
VL: B6 VL
notes: also called 5C4; BMS-936558
As for B7, in test [3], binding was put at a Kd of 6.9 nM.

B8: PD-1 mAb 8 (antibody, V domains shown)
VH: EGQLQQSGPELVKPGASVKISCKASGYTFTDYYMNWVKQNHGKSLEWIGDINPKNGDTHYNQKFKGEATLTVDKSSTTAYMELRSLTSEDSAVYYCASDFDYWGQGTTLTVSS
VL: DVVMTQTPLSLPVGLGDQASISCRSSQTLVYSNGNTYLNWFLQKPGQSPKLLIYKVSNRFSGVPDRFSGSGSGTDFTLKISRVEAEDLGVYFCSQSTHVPFTFGSGTKLEIK
notes: Murine monoclonal antibody
With B8, the binding result in [5], in test [6] and in test [7] was “binds” each time.

B9: PD-1 mAb 11 (antibody, V domains shown)
VH: EVQLQQSGTVLARPGASVKMSCKTSGYTFTGYWMHWVKQRPGQGLKWMGAIYPGNSDTHYNQKFKGKAKLTAVTSASTAYMELSSLTNEDSAIYYCTTGTYSYFDVWGTGTTVTVSS
VL: DILLTQSPAILSVSPGERVSFSCRASQSIGTSIHWYQHRTNGSPRLLIKYASESISGIPSRFSGSGSGTDFTLSINSVESEDIADYYCQQSNSWLTFGAGTKLELK
notes: Murine monoclonal antibody
Take B9: the “EC50 (read off the curve)” value in test [5] and in test [7] was around 0.2 µg/mL in each case. Moreover, in [6], the binding result was “binds”.

B10: hPD-1 mAb 2 IgG1 (AA) (antibody, V domains shown)
VH: EVQLVESGGGLVQPGGSLRLSCAASGFVFSSFGMHWVRQAPGKGLEWVAYISSGSMSISYADTVKGRFTISRDNAKNTLYLQMNSLRTEDTALYYCASLSDYFDYWGQGTTVTVSS
VL: DVVMTQSPLSLPVTLGQPASISCRSSQSLVHSTGNTYLHWYLQKPGQSPQLLIYRVSNRFSGVPDRFSGSGSGTDFTLKISRVEAEDVGVYYCSQTTHVPWTFGQGTKLEIKR
Take B10: the “IC50 (read off the curve)” value in [1] is around 0.04 ug/test; in test [2], around 0.1 ug/test. Besides, the “EC50 (read off the curve)” value in test [9] was around 0.5 µg/mL.

B11: hPD-1 mAb 2, constant region not named where tested (antibody, V domains shown)
VH: B10 VH
VL: DVVMTQSPLSLPVTLGQPASISCRSSQSLVHSTGNTYLHWYLQKPGQSPQLLIYRVSNRFSGVPDRFSGSGSGTDFTLKISRVEAEDVGVYYCSQTTHVPWTFGQGTKLEIK
notes: also called humanized PD-1 mAb 2
With B11, the results for the Kd in [3] and in test [4] were 17 nM and 5 nM, respectively.

B12: PD-1 mAb 14 (antibody, V domains shown)
VH: QVQLQQPGAELVKPGASVKMSCKASGYNFISYWITWVKQRPGQGLQWIGNIYPGTDGTTYNEKFKSKATLTVDTSSSTAYMHLSRLTSEDSAVYYCATGLHWYFDVWGTGTTVTVSS
VL: DIVMTQSQKFMSTSVGDRVSVTCKASQSVGTNVAWYQQKPGQSPKALIYSASSRFSGVPDRFTGSGSGTDFTLTISNVQSEDLAEYFCQQYNSYPYTFGGGTKLEIK
notes: Murine monoclonal antibody
With B12, the binding result in [5], in test [6] and in test [7] was “binds” throughout.

B13: PD-1 mAb 12 (antibody, V domains shown)
VH: QGHLQQSGAELVRPGASVTLSCKASGFTFTDYEMHWVKQTPVHGLEWIGTIDPETGGTAYNQKFKGKAILTVDKSSTTTYMELRSLTSEDSAVFYCSRERITTVVEGAYWYFDVWGTGTTVTVSS
VL: DVLMTQTPLSLPVSLGDQASISCRSSQNIVHSNGNTYLEWYLQKPGQSPKLLICKVSTRFSGVPDRFSGSGSGTDFTLKISRVEAEDLGVYYCFQGSHVPYTFGGGTKLEIK
notes: Murine monoclonal antibody
B13: the binding result in test [5], in [6] and in [7] was “binds” each time.

B14: hPD-1 mAb 9 (1.1), constant region not named where tested (antibody, V domains shown)
VH: EVQLVESGGGLVRPGGSLKLSCAASGFTFSSYLVSWVRQAPGKGLEWVATISGGGGNTYYSDSVKGRFTISRDNAKNSLYLQMNSLRAEDTATYYCARYGFDGAWFAYWGQGTLVTVSS
VL: DIQMTQSPSSLSASVGDRVTITCRASENIYSYLAWYQQKPGKAPKLLIYNAKTLAAGVPSRFSGSGSGTDFTLTISSLQPEDFATYYCQHHYAVPWTFGQGTKLEIK
Take B14: the Kd was determined as 73.3 nM in test [3] and 36.1 nM in test [4].

B15: PD-1 mAb 10 (antibody, V domains shown)
VH: EVILVESGGGLVKPGGSLKLSCAASGFTFSNYLMSWVRQTPEKRLEWVASISGGGSNIYYPDSVKGRFTISRDNAKNTLYLQMNSLRSEDTALYYCARQELAFDYWGQGTTLTVSS
VL: DIQMTQTTSSLSASLGDRVTISCRTSQDISNFLNWYQQKPDGTIKLLIYYTSRLHSGVPSRFSGSGSGTDYSLTISNLEQEDIATYFCQQGSTLPWTFGGGTKLEII
notes: Murine monoclonal antibody
B15: the binding result in [5], in test [6] and in test [7] was “binds” in each case.
